Results from article PMC9959560.

Tests used:
[1] = non-reducing SDS-PAGE and WB, dimer fraction, HeLa; conditions: glycan lost; control: wild-type SF
[2] = UDP-[3H]GalNAc transfer to fetuin, COS-7 lysates, normalised; conditions: glycan lost; control: wild-type SF
[3] = anisomycin chase 2-10 h, anti-FLAG WB, HeLa; conditions: glycan lost; control: wild-type SF
[4] = anti-Sda KM694 WB of HeLa glycoproteins, normalised; conditions: glycan lost; control: wild-type SF
[5] = anti-FLAG WB normalised to β-actin, HeLa; conditions: glycan lost; control: wild-type SF
[6] = WB of culture media, HeLa (data not shown); conditions: glycan lost; control: wild-type SF
[7] = confocal colocalisation with TMEM165 and Calnexin, HeLa; conditions: glycan lost; control: wild-type SF-eGFP

B1: SF-B4GALNT2: N77Q (protein)
parent chain: MTSGGSRFLWLLKILVIILVLGIVGFMFGSMFLQAVFSSPKPELPSPAPGVQKLKLLPEERLRNLFSYDGIWLFPKNQCKCEANKEQGGYNFQDAYGQSDLPAVKARRQAEFEHFQRREGLPRPLPLLVQPNLPFGYPVHGVEVMPLHTVPIPGLQFEGPDAPVYEVTLTASLGTLNTLADVPDSVVQGRGQKQLIISTSDRKLLKFILQHVTYTSTGYQHQKVDIVSLESRSSVAKFPVTIRHPVIPKLYDPGPERKLRNLVTIATKTFLRPHKLMIMLRSIREYYPDLTVIVADDSQKPLEIKDNHVEYYTMPFGKGWFAGRNLAISQVTTKYVLWVDDDFLFNEETKIEVLVDVLEKTELDVVGGSVLGNVFQFKLLLEQSENGACLHKRMGFFQPLDGFPSCVVTSGVVNFFLAHTERLQRVGFDPRLQRVAHSEFFIDGLGTLLVGSCPEVIIGHQSRSPVVDSELAALEKTYNTYRSNTLTRVQFKLALHYFKNHLQCAA
oligomerisation [1]: decreases
enzymatic_activity [2]: decreases
degradation_or_half_life [3]: increases
enzymatic_activity [4]: no change
expression_or_secretion [5]: decreases
expression_or_secretion [6]: no change
localisation_or_trafficking [7]: changes
